Measurements taken from paper PMC314469, “Protein Interaction Networks by Proteome Peptide Scanning” (PLoS Biology, 2004).

Biological target: Sho1 SH3 (SHO1_YEAST), P40073
Assay: SPOT array

Sequence of Sho1 SH3 (SHO1_YEAST), P40073 (P40073 295-366): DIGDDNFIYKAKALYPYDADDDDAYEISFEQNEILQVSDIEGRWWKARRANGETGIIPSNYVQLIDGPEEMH

Row | normalised SPOT signal, Boehringer light units (BLU); mean over the file's lines of this peptide | Binder
1 | 275 | FHDPILPRRTSTFL
2 | 56.7 | EYFPISPEKKEEME [591-604 Hypothetical ORF]
3 | 120 | GGQPPVPVRMQPQP
4 | 884 | FQPPPKPFRRSQSS [657-670 Hypothetical ORF]
5 | 4360 | FTAPPVPTKKKSKN [316-329 " Yeast homologue of mammalian GRASP proteins, also localised to the Golgi apparatus."]
6 | 158 | GYDPTDPNRPKVTK [1426-1439 Hypothetical ORF]
7 | 32.8 | ETVPTEPTRYNYQN [1359-1372 negative regulator of early meiotic gene expression]
8 | 166 | FPDPNNPSKVQIRM [375-388 transcription factor]
9 | 213 | GNIPVFPAKFGIQF [476-489 Mitochondrial outer membrane protein involved in mitochondrial morphology and inheritance]
10 | 183 | EIAPLIPKKPALRK [597-610 component of vacuolar membrane protein complex]
11 | 281 | EILPVKPTKKSSKK [808-821 involved in bud site selection]
12 | 284 | FVIPGVPSKSYSLF [310-323 H+-biotin symporter]
13 | 182 | EVSPVEPKRTENER [687-700 putative serine/threonine kinase]
14 | 139 | GLEPNTPLKSIKVD [340-353 isopropylmalate isomerase]
15 | 214 | FPYPGNPLKIINYE [862-875 Pho85 kinase inhibitor]
16 | 140 | GSNPDLPNKSNLKF [307-320 " Twinfilin A, an actin monomer sequestering protein"]
17 | 69.7 | ENAPANPSKALKVK [549-562 Arf-binding protein]

Row | normalised SPOT signal, Boehringer light units (BLU); mean over the file's lines of this peptide | Binder
18 | 139 | HGVPVVPSREVTIN [440-453 protoporphyrinogen oxidase]
19 | 45.8 | ENFPIVPLKSVAQD [638-651 transcription factor]
20 | 132 | EILPQAPAKKVFES
21 | 156 | GITPVGPGKFSRSA [256-269 mitochondrial ribosomal protein L2 of the large subunit]
22 | 163 | EIAPSLPSRNSIPA [471-484 Actin binding protein]
23 | 39.3 | GRIPQLPNRDEMTA [1268-1281 protein kinase]
24 | 5100 | EIPPPLPPKIMVHS [528-541 Ubiquitin-specific protease]
25 | 183 | EYSPLVPSKMSADK [356-369 mitochondrial protein; (putative) chaperone]
26 | 257 | FSKPQEPVKAEEAE [393-406 Actin binding protein]
27 | 127 | ELDPISPLKVPLTA [276-289 involved in cell wall biogenesis]
28 | 483 | FLPPPKPFRHTETK [587-600 Hypothetical ORF]
29 | 102 | ELPPIKPPRPTSTT [619-632 " contains 3 SH3 domains, interacts with Bee1p"]
30 | 119 | GYDPTDPSRPRINE [1469-1482 Hypothetical ORF]
31 | 121 | FPYPFKPSRVGVKY [440-453 Hypothetical ORF]
32 | 202 | HPDPADPAKELELN [377-390 lysyl-tRNA synthetase]
33 | 441 | FISPHLPMKGRLVL [471-484 Hypothetical ORF]

Continued, binder first:

Row | Binder | normalised SPOT signal, Boehringer light units (BLU); mean over the file's lines of this peptide
34 | GPPPAMPARPTATT [192-205 " contains 3 SH3 domains, interacts with Bee1p"] | 89.9
35 | EHKPVSPDKIGTFT [81-94 transcription factor] | 0
36 | GGDPTKPVRTWNDL [193-206 subunit of a cytoplasmic histone acetyltransferase] | 112
37 | ELPPTHPIRLGLAL [164-177 Homolog of mammalian 14-3-3 proteins;member of conserved eukaryotic 14-3-3 gene family] | 161
38 | IAAPKKPRKPRQTK [241-254 RNA polymerase II mediator subunit] | 327
39 | ENVPLYPSRRNIWE [81-94 Hypothetical ORF] | 178
40 | HSTPVTPRRLFTSQ [171-184 protein required for Clb2 and Ase1 degradation] | 240
41 | EYHPIKPLRSSSST [234-247 Hypothetical ORF] | 105
42 | GAPPTTPSRPRTTT [91-104 phosphatidylserine decarboxylase located in vacuole or Golgi] | 29.2
43 | GRHPDMPTRVKNAY [219-232 component of cytoplasmic chaperonin complex] | 189
44 | GNTPDAPKRGFLGY [44-57 Hexose transporter] | 45.5
45 | HNSPVAPNRYAANL [84-97 chitin synthase 2] | 103
46 | FDFPLSPVKHENPT [196-209 Product of gene unknown] | 27.7
47 | FFHPAIPLKNAAPF [112-125 Hypothetical ORF] | 162
48 | GAKPKIPSKLYQSV [124-137 Unknown] | 145
49 | FRFPRLPQKKKEEL [106-119 " mRNA guanylyltransferase (mRNA capping enzyme), alpha subunit"] | 773
50 | ENKPFKPPRRVGSN [41-54 Putative helicase similar to RAD54] | 164
51 | GVYPSRPEKTYDYS | 109
52 | ERDPNAPKKPLTVF [100-113 35 kDa protein belonging to the high mobility group (HMG) fanily of proteins] | 157
53 | EMIPSSPQRKSVSN [51-64 Product of gene unknown] | 164
54 | HSSPIAPSKAKRQR [64-77 Transcription factor (fork head domain)] | 201
55 | ELEPQHPLRHKSSL [53-66 "glucose repression protein, a component of the Snf1 complex"] | 102
56 | FSHPLSPLKSNFID [74-87 Hypothetical ORF] | 164
57 | GSSPVSPDKRPSWK [66-79 vacuolar alpha mannosidase] | 60.3
58 | FWNPENPYKFVHPR [171-184 " 1,4-glucan-6-(1,4-glucano)-transferase"] | 129
59 | ERDPNMPKRPTNAY [88-101 HMG1-box containing protein] | 83.8
